From patent publication US8445662B2, “Mycobacterium tuberculosis fusion protein and uses thereof” (The 309th Hospital, The People's Liberation Army, priority 2006, dated 2013)

Settings: guinea pig, in vivo

Substance: Bovine serum albumin (BSA): positive control group in the guinea pig anaphylaxis test
- Averaged weight (g), during excitation: 447.1 ± 41.4 g
- Averaged weight (g), sensitized upon the last injection: 380.6 ± 23.6 g
- Reaction level + (number of guinea pigs): 0
- Reaction level ++ (number of guinea pigs): 0
- Reaction level +++ (number of guinea pigs): 3
- Reaction level ++++ (number of guinea pigs): 0
- Reaction level − (number of guinea pigs): 3
